Measurements taken from patent US20140223606, “COMPOSITIONS AND METHODS COMPRISING SEQUENCES HAVING MEGANUCLEASE ACTIVITY” (PIONEER HI BRED INTERNATIONAL INC, published 2014).

T1: LIG3-4(B75) (artificial)
T1 chain: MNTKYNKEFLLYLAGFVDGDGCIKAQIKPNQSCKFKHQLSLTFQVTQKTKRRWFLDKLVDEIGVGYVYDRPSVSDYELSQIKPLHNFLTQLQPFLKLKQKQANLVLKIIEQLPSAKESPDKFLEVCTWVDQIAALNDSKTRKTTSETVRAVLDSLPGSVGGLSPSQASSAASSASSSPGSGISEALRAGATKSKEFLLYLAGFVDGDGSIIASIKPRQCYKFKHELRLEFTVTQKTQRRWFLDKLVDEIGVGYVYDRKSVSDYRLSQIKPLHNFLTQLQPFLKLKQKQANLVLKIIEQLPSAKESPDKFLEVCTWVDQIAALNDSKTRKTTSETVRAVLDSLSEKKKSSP

T2: LIG3-4(B78) (artificial)
T2 chain: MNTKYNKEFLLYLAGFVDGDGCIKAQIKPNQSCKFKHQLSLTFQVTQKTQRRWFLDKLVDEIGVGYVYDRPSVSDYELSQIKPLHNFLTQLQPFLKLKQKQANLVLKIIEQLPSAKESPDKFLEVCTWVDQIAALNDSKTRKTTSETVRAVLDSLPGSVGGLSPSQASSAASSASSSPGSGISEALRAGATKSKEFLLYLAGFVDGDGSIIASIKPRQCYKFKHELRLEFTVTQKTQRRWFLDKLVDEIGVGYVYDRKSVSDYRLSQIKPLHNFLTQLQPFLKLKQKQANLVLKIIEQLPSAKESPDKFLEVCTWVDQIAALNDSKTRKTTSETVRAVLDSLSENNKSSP

T3: ZM6.22v2(I4) (artificial)
T3 chain: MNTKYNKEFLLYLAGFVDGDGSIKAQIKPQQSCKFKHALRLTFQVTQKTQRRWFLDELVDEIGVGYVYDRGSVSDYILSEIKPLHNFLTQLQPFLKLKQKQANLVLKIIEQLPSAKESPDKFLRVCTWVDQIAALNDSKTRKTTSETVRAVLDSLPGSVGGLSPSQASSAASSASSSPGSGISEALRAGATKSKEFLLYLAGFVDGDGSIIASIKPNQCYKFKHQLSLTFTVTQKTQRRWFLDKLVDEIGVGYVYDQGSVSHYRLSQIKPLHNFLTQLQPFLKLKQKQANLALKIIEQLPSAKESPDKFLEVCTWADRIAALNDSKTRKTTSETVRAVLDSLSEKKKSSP

T4: ZM6.22v2(I9) (artificial)
T4 chain: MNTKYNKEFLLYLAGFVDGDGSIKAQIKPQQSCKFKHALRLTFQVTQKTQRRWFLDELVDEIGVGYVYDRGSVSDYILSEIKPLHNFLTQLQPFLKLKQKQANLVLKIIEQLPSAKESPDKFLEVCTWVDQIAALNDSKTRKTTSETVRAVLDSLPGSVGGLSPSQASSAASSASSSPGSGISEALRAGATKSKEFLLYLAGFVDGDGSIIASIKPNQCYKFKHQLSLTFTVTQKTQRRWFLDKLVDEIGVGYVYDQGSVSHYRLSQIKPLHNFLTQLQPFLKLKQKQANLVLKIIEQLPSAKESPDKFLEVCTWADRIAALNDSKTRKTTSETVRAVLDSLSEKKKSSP

T5: ZM6.22v2 (artificial)
T5 chain: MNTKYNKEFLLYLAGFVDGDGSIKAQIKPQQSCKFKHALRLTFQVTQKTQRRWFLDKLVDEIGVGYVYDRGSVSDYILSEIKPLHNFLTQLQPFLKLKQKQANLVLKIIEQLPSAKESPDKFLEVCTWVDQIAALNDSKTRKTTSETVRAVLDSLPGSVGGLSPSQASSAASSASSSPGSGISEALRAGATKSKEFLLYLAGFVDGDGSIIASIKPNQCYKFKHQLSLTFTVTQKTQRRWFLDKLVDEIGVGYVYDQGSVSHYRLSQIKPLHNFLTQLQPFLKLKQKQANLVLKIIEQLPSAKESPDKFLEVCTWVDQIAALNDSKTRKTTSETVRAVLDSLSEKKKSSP


Tests used:
Settings in all cases: tags: NLS, 6xHis
LIG3-4(B75) = biological target: T1, LIG3-4(B75); test: cell_activity; yeast 30 C; 22 C: 4
Experimental: (§1) A 3 mL culture of selective media (MP Biomedical) was inoculated with a single colony of the yeast screening strain and grown at 30° C. overnight. On the following day, a 50 ml YPD culture (MP Biomedical) was started with 2 ml of the overnight culture and grown at 30° C. overnight. On the following day, the cells were harvested by centrifugation at 4000 rpm. The cells were resuspended in 100 ml ice cold water and centrifuged again. The cells were then washed in 1.2 M sorbitol, followed by treatment with 2 ml of 10 mM Tris pH 8.0, 1 mM EDTA, 100 mM Lithium acetate, 10 mM DTT, 0.6M sorbitol for 30 minutes at 30° C. with shaking. The cells were recovered by centrifugation, washed in 40 ml 1.2M sorbitol and finally resuspended in 250 microliters of 1.2M sorbitol. 50 microliter aliquots were transferred to test tubes on ice. Up to 5 microliters of DNA (100-500 nanograms) were added. The suspension was transferred to a 0.2 cm electroporation cuvette, on ice. Electroporation was performed with a pulse charge at 1.5 kV, 200 ohms, 25 microF (pulse time of 5 milliseconds). 1 mL YPD media (MP Biomedical) was added and the cells were allowed to recover at 30° C. for 1-2 hr. The cells were centrifuged, resuspended in 100 uL 1M sorbitol and plated on selective media lacking leucine and containing 2% galactose. The resulting yeast colonies were incubated at various temperatures ranging from 22 to 37 degrees Celsius for 7-10 days. I-CreI and meganucleases derived from it have maximal activity at or above 37 degrees Celsius. Screening was performed at a range of temperatures from 22 to 37 degrees in order to observe increases in activity at lower temperatures which are relevant to certain biological systems (eg. plant cells, plant cell cultures, etc). At that time the red/white sectoring phenotype, indicative of meganuclease activity was observed. Colonies with increased white sectoring over the parental meganuclease (indicating colonies expressing a meganuclease with increased meganuclease activity), also referred to as “hits” and sometimes completely white, were isolated for further analysis.

LIG3-4(B78) = biological target: T2, LIG3-4(B78); test: cell_activity; yeast 30 C; 22 C: 4
Experimental: as §1

ZM6.22v2(I4) = biological target: T3, ZM6.22v2(I4); test: cell_activity; yeast 37 C; 30 C: 0
Experimental: as §1
(§2) A total of 13 ZM6.22v2 variants with increased activity were confirmed in the yeast system (as described in Example 6). Increased activity was observed across a range of temperatures: 28 degrees Celsius, 30 degrees Celsius and 37 degrees Celsius, as shown in Table 16.

ZM6.22v2(I9) = biological target: T4, ZM6.22v2(I9); test: cell_activity; yeast 37 C; 30 C: 0
Experimental: as §1, §2

ZM6.22v2 = biological target: T5, ZM6.22v2; test: cell_activity; yeast 37 C; 30 C: 0
Experimental: as §1, §2

Binder | activity (LIG3-4(B75)) [score 0-4] | activity (LIG3-4(B78)) [score 0-4] | activity (ZM6.22v2(I4)) [score 0-4] | activity (ZM6.22v2(I9)) [score 0-4] | activity (ZM6.22v2) [score 0-4]
LIG3-4 recognition site (dsDNA) DNA 1: ATATACCTCACACGTACGCGTA DNA 2: TACGCGTACGTGTGAGGTATAT | 4 | 4 |  |  | 
ZM6.22v2 recognition site (dsDNA) DNA 1: ATTGCTCTCTCACATACTTTTA DNA 2: TAAAAGTATGTGAGAGAGCAAT |  |  | 3 | 2 | 1
